Measured values published in patent publication US20090068637A1.

How the values were obtained:
Assay in all cases: cell-based or functional assay
[1] = target: HA of H5N1 virus strain IDN2 (avian influenza virus H5N1)
[2] = target: HA of H5N1 virus strain HN2 (avian influenza virus H5N1)
[3] = target: HA of H5N1 virus strain VTM4 (avian influenza virus H5N1)
[4] = target: HA of H5N1 virus strain VNM2.1 (avian influenza virus H5N1)
[5] = target: HA of H5N1 virus strain VTM2 (avian influenza virus H5N1)
[6] = target: HA of H5N1 virus strain MB2 (avian influenza virus H5N1)
[7] = target: HA of H5N1 virus strain GD2 (avian influenza virus H5N1)
[8] = target: H5 virus strains (thirty-four strains of H5N1 viruses)
[9] = target: HA of H5N1 virus strain MB1 (avian influenza virus H5N1)
[10] = target: HA of H5N1 virus strain GD3 (avian influenza virus H5N1)
[11] = target: non-H5 viruses (14 strains; H1~H13, Chicken NDV)
[12] = target: HA of H5N1 virus strain IDN5 (avian influenza virus H5N1)
[13] = target: HA of H5N1 virus strain VTM1.1 (avian influenza virus H5N1)
[14] = target: HA of H5N1 virus strain MIX1 (avian influenza virus H5N1)
[15] = target: HA of H5N1 virus strain HN1 (avian influenza virus H5N1)
[16] = target: HA of H5N1 virus strain YN1 (avian influenza virus H5N1)
[17] = target: HA of H5N1 virus strain GD1 (avian influenza virus H5N1)
[18] = target: HA of H5N1 virus strain IDN1.1 (avian influenza virus H5N1)
[19] = target: HA of H5N1 virus strain MIX2 (avian influenza virus H5N1)
[20] = target: HA of H5N1 virus strain VTM3 (avian influenza virus H5N1)
[21] = target: HA of H5N1 virus strain IDN3 (avian influenza virus H5N1)
[22] = target: HA of H5N1 virus strain MIX3 (avian influenza virus H5N1)
[23] = target: HA of H5N1 virus strain IDN4 (avian influenza virus H5N1)

B1: monoclonal antibody 4D1 (antibody, V domains shown)
VH: QVQLQQPGAELVKPGASVNLSCKASGYTFTSYWMHWVKQRPGQGLEWIGEIDPSDSFTTYNQNFKDRATLTVDKSSSTAYMQLRSLTSEDSAVYYCARGGPGDFRYAMDYWGQGTSVTVSS
VL: DILMTQSPSSMSVSLGDTVSITCHASQGISSNIGWLQQKPGKSFKGLIYHGTNLEDGVPSRFSGSGSGADYSLTISSLESEDFADYYCVQYVQFPYTFGGGTKLEIKR
Binder B1 has an HI titer [1] of 800 titer, a Neutralization titer [1] of 12800 titer and an HI titer [2] of 3200 titer. The Neutralization titer [2] was 12800 titer, the HI titer [3] was 400 titer and the Neutralization titer [3] was 1600 titer. The HI titer [4] was 400 titer, the Neutralization titer [4] was 1600 titer and the HI titer [5] was 3200 titer. The Neutralization titer [5] was 3200 titer, the HI titer [6] was 6400 titer and the Neutralization titer [6] was 12800 titer. It also gave an HI titer [7] of 800 titer, a Neutralization titer [7] of 12800 titer and an HI assay: positive number/total virus number (of 34 strains) [8] of 34. It also gave an HI titer [9] of 3200 titer, a Neutralization titer [9] of 6400 titer and an HI titer [10] of 12800 titer. For the same binder, the Neutralization titer [10] was 12800 titer, the HI assay: positive number/total virus number (of 14 strains) [11] was 0 and the HI titer [12] was 12800 titer. The Neutralization titer [12] was 12800 titer, the HI titer [13] was 3200 titer and the Neutralization titer [13] was 1600 titer. It also gave an HI titer [14] of 12800 titer, a Neutralization titer [14] of 12800 titer and an HI titer [15] of 12800 titer. For the same binder, the Neutralization titer [15] was 12800 titer, the HI titer [16] was 6400 titer and the Neutralization titer [16] was 12800 titer. It also gave an HI titer [17] of 12800 titer, a Neutralization titer [17] of 12800 titer and an HI titer [18] of 12800 titer. It also gave a Neutralization titer [18] of 12800 titer, an HI titer [19] of 12800 titer and a Neutralization titer [19] of 12800 titer. For the same binder, the HI titer [20] was 12800 titer, the Neutralization titer [20] was 12800 titer and the HI titer [21] was 6400 titer. For the same binder, the Neutralization titer [21] was 12800 titer, the HI titer [22] was 12800 titer and the Neutralization titer [22] was 12800 titer. It also gave an HI titer [23] of 12800 titer and a Neutralization titer [23] of 12800 titer.

B2: monoclonal antibody 10F7 (antibody, V domains shown)
VH: QVQLQQPGAELVKPGASVKLSCKASGYTFTSYWMHWVKQRPGQGLEWIGEIDPSDSYTNYNQKFKGKATLTVDKSSSTAYMQLSSLTSEDSAVYYCARGGTGDFHYAMDYWGQGTSVTVSS
VL: DILMTQSPSSMSVSLGDTVSITCHASQGISSNIGWLQQKPGKSFKGLIYHGTNLEDGVPSRFSGSGSGADYSLTISSLESEDFADYYCVQYVQFPYTFGGGTKLEIKR
With B2 the HI titer [1] was 1600 titer, the Neutralization titer [1] was 12800 titer and the HI titer [2] was 1600 titer. For the same binder, the Neutralization titer [2] was 12800 titer, the HI titer [3] was 400 titer and the Neutralization titer [3] was 200 titer. The HI titer [4] was 3200 titer, the Neutralization titer [4] was 200 titer and the HI titer [5] was 1600 titer. The Neutralization titer [5] was 3200 titer, the HI titer [6] was 12800 titer and the Neutralization titer [6] was 12800 titer. It also gave an HI titer [7] of 12800 titer, a Neutralization titer [7] of 12800 titer and an HI assay: positive number/total virus number (of 34 strains) [8] of 34. The HI titer [9] was 6400 titer, the Neutralization titer [9] was 12800 titer and the HI titer [10] was 12800 titer. For the same binder, the Neutralization titer [10] was 12800 titer, the HI assay: positive number/total virus number (of 14 strains) [11] was 0 and the HI titer [12] was 6400 titer. The Neutralization titer [12] was 12800 titer, the HI titer [13] was 3200 titer and the Neutralization titer [13] was 3200 titer. The HI titer [14] was 12800 titer, the Neutralization titer [14] was 12800 titer and the HI titer [15] was 12800 titer. The Neutralization titer [15] was 12800 titer, the HI titer [16] was 3200 titer and the Neutralization titer [16] was 12800 titer. The HI titer [17] was 6400 titer, the Neutralization titer [17] was 12800 titer and the HI titer [18] was 12800 titer. It also gave a Neutralization titer [18] of 12800 titer, an HI titer [19] of 12800 titer and a Neutralization titer [19] of 12800 titer. The HI titer [20] was 12800 titer, the Neutralization titer [20] was 12800 titer and the HI titer [21] was 1600 titer. For the same binder, the Neutralization titer [21] was 12800 titer, the HI titer [22] was 12800 titer and the Neutralization titer [22] was 12800 titer. For the same binder, the HI titer [23] was 12800 titer and the Neutralization titer [23] was 12800 titer.

B3: monoclonal antibody 8H5 (antibody, V domains shown)
VH: QVQLQQSGAELMKPGASVKISCKATGYTFSNYWIEWIKQRPGHGLEWIGEILPGSDRTNYNGKFKGKATFTADTSSNTAHMQLSSLTSEDSAVYYCANRYDGYYFGLDYWGQGTSVAVSS
VL: EIVLTQSPAIMSASLGEKVTMSCRASSSVNFVYWYQQRSDASPKLLIYYSSNLAPGVPPRFSGSGSGNSYSLTISGLEGEDAATYYCQHFTSSPYTFGGGTNLEIKR
Work on B3 yielded an HI assay: positive number/total virus number (of 14 strains) [11] of 0.
